Laboratory results reported in PMC5856381 (2018).

Assays:
[1] = target: T1, hemoglobin (Hb), human, cell-free (human, UniProt P69905 1-142; P68871 1-147); assay: SPR
[2] = target: T1, hemoglobin (Hb), human, cell-free; assay: SPR; remark: listed apart in the source

T1 sequence (P69905 whole entry, chain 1 of 2): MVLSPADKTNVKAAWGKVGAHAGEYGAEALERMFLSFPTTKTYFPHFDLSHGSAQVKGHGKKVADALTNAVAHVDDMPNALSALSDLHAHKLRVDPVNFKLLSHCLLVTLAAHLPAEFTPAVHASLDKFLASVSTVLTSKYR
T1 sequence (P68871 whole entry, chain 2 of 2): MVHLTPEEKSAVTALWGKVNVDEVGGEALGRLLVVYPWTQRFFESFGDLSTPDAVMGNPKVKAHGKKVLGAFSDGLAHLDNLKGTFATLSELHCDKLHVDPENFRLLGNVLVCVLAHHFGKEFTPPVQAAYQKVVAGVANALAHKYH

Kd [1]: < 0.042 nM
koff [2]: < 5e-05 s⁻¹
B1: recombinant haptoglobin Hp1F, C1r-LP processed (natural protein)
chain 1: VDSGNDVTDIADDGCPKPPEIAHGYVEHSVRYQCKNYYKLRTEGDGVYTLNDKKQWINKAVGDKLPECEAVCGKPKNPANPVQ
chain 2: ILGGHLDAKGSFPWQAKMVSHHNLTTGATLINEQWLLTTAKNLFLNHSENATAKDIAPTLTLYVGKKQLVEIEKVVLHPNYSQVDIGLIKLKQKVSVNERVMPICLPSKDYAEVGRVGYVSGWGRNANFKFTDHLKYVMLPVADQDQCIRHYEGSTVPEKKTPKSPVGVQPILNEHTFCAGMSKYQEDTCYGDAGSAFAVHDLEEDTWYATGILSFDKSCAVAEYGVYVKVTSIQDWVQKTIAEN
modifications: Hp1F built from the first (F) repeat of Hp2FS (mature Asp52/Lys53 = precursor D70/K71); C1r-LP cleaves after R161 (Arg omitted from alpha chain per UniProt convention); alpha-beta and inter-alpha disulfides; N-glycosylated; C-terminal 8xHis tag omitted
